Where a chain is given by its changes, count along the chain named. Like-named read-outs stand apart in the source and are kept apart here.
Legend:
[1] = biological target: T1, cynomolgus CD73 (Biacore analyte) (cynomolgus, UniProt A0A2K5V5U7 27-547); test: SPR, Biacore 8K, antibody captured on CM5 chip, CD73 as analyte, multicycle kinetics, 1:1 model
T1 sequence: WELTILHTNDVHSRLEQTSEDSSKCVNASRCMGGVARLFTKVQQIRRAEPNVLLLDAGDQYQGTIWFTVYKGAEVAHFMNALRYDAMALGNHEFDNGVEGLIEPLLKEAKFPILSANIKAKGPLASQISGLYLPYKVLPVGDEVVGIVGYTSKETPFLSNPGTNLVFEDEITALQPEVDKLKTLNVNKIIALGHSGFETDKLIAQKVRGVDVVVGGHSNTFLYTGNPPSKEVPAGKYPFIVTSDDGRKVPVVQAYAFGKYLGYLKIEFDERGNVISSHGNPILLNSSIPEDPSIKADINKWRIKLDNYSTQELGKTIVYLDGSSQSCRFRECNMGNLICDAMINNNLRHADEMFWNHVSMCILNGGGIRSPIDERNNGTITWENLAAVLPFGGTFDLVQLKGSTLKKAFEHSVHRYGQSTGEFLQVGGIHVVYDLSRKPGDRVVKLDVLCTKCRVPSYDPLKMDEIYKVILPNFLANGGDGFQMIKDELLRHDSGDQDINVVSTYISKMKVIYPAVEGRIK

[2] = biological target: T2, human CD73 antigen (Biacore analyte) (human, UniProt P21589 27-547, limits assumed); test: as above
T2 sequence (looked up): T1 sequence with T199M, A350T, I466V

[3] = biological target: T3, human CD73 on cells (H322, MDA-MB-231, HT-144, T cells, CD73-transfected HEK293T) (human, UniProt P21589 27-549); test: flow cytometry on H322 cells (endogenous CD73), fluorescently labeled secondary antibody, PE channel
T3 construct: whole, on cells; One molecule for endogenous and transfected cell-surface human CD73; the cell line is named under assay or readout; also called CD73 antigen; human CD73 antigen
T3 sequence (looked up): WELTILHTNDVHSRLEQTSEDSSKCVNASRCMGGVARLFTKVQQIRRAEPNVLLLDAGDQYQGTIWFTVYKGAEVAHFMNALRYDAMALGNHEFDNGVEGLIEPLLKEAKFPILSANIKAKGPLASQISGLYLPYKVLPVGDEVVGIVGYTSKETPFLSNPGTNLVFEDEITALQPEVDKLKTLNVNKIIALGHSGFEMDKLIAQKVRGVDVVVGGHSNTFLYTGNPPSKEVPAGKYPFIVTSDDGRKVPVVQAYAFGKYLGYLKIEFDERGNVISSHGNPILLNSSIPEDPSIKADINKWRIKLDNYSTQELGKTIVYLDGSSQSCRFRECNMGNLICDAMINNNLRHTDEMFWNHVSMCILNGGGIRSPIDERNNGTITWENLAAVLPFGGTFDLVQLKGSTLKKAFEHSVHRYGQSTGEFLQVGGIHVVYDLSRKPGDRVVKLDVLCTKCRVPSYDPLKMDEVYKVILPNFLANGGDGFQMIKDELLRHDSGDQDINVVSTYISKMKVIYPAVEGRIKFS

[4] = biological target: T3, human CD73 on cells (H322, MDA-MB-231, …); test: cell-based or functional assay
[5] = biological target: T3, human CD73 on cells (H322, MDA-MB-231, …); test: cell-based or functional assay; remark: listed apart in the source
[6] = biological target: T3, human CD73 on cells (H322, MDA-MB-231, …); test: flow cytometry on MDA-MB-231 cells (endogenous CD73), fluorescently labeled secondary antibody, PE channel
[7] = biological target: T3, human CD73 on cells (H322, MDA-MB-231, …); test: cell-based or functional assay; remark: listed apart in the source

B1: 006_hKB antibody (antibody, V domains shown)
VH: QVQLLQSGAEVKKPGESVKISCKASGYTFTSYWMHWVKQRPGQGLEWIGEINPSNARTNYNENFKSRFTITVDKSTSTAYMQFSRLRSDDTAVYYCARRGTSGNYFDFWGQGTMLTVSS
VL: DIQMTQSPSSLSASLGQRVTITCKASQDINTYLSWFQQKPGKPPKTLIYRANRLVDGVPSRFSGSGSGEDYSLTISSLQSEDFGVYYCLQYDEFPYTFGPGTRLEIK
notes: Humanized antibody based on 006_m
- Kd [1]: 0.457 nM
- Kd [2]: 0.426 nM

B2: 005_m antibody (antibody, V domains shown)
VH: DVQLVESGPGLVAPSQSLSITCTVSGFSLTSYGVSWVRQPPGKGLEWLGVIWGDGSTNYHSALISRLSISKDNSKSQVFLKLNSLQTDDTATYYCAKTNIFYDYDWYLDVWGAGTTVTVSS
VL: DIVMTQAPLSLPVSLGDQASISCRSSQSLVHSNGNTYLHWYLQKPGQSPKLLIYKVSNRFSGVPDRFSGSGSGTDFTLKISRVEAEDLGVYFCSHSTHVPWTFGGGTKLELK
notes: Mouse antibody expressed recombinantly in CHO cells
- binding result [3]: binds

B3: 002_6_h4 antibody (antibody, V domains shown)
VH: QVQMKQSAAEVRKPGASVKVSCKASGYTFTDSNMDWVRQAPGQGLEWMGDINPNNGGTIYNQKFKGRVTMTIDTSRSTAYMELRSLRSDDTAVYYCARTNWDYAMDYWGQGTTVTVSS
VL: DIQMTQSPSFLSASVGDRVTITCKASQDINSQLSWYQQKPGKAPKTLIYRANRLIDGVPSRFSGSGSGTDFTLTISSLQYEDMATYYCLQYDVFPRTFGGGTKLEIK
notes: Humanized antibody of 002_6_c; also called humanized anti-CD73 antibody 002_6_h4; lead antibody
- IC50 of AMP degradation suppressive function, MDA-MB-231 cells [4]: 0.032 mg/L
- Kd [1]: 0.273 nM
- Kd [2]: 0.204 nM
- IC50 of AMP degradation suppressive function, H322 cells [5]: 0.069 mg/L

B4: 009_m antibody (antibody, V domains shown)
VH: QVQLQQSGAELVRPGASVKLSCKASGYTFTSYWMNWVKQRPEPGLEWIGRIDPYDSEAHYNQKFKDKAILTVDKSSSTAYMQLSSLTSEDSAVYYCTRIRYGTFDYWGQGTTLTVSS
VL: DIVLTQSPSSMYASLGERVTITCKASQDINSYLSWFQQKPGKSPKTLIYRSNSLVDGVPSRFSGSGSGQDYSLTISSLEYEDMGSYYCLQYDEFPYTFGGGTRLEIKR
notes: as for B2
- binding result [6]: binds

B5: 002_m antibody (antibody, V domains shown)
VH: QVQMKQSGPELVKPGASVKIPCKASGYTFTDCNMDWVKQSHGESLEWIGDINPNNGGTIYNQKFKGKVTLTIDKSSSTAYMELRSLTSEDTAVYYCARTNWDYAMDYWGQGTSVTVSS
VL: DIQMTQSPSSMYASLGERVTITCKASQDINSNLSWFQQKPGKSPKTLIYRANRLIDGVPSRFSGSGSGQDYSLTISSLEYEDMGIYYCLQYDVFPRTFGGGTKLELK
- IC50 of AMP degradation suppressive function, H322 cells [7]: 0.089 mg/L

Source: patent US20230220104A1 (BRIGHTPATH BIOTHERAPEUTICS, published 2023)
